In the FLAb antibody collection:

Assay: patients with anti-drug antibodies; higher = more immunogenic

Row | Protein | patients with anti-drug antibodies [%]
1 | unnamed (protein) chain 1: EVTLRESGPGLVKPTQTLTLTCTLYGFSLSTSDMGVDWIRQPPGKGLEWLAHIWWDDVKRYNPALKSRLTISKDTSKNQVVLKLTSVDPVDTATYYCARTVSSGYIYYAMDYWGQGTLVTVSS chain 2: DIQMTQSPSSLSASVGDRVTISCRASQDIRNYLNWYQQKPGKAPKLLIFYTSKLHSGVPSRFSGSGSGTDYTLTISSLQPEDIATYYCQQGNTLPLTFGGGTKVEIK | 3
2 | unnamed (protein) chain 1: QVQLVQSGAEVKKPGASVKVSCKVSGYTFTSYDINWVRQAPGKGLEWMGWIYPGDGSIKYNEKFKGRVTMTVDKSTDTAYMELSSLRSEDTAVYYCARRGEYGNYEGAMDYWGQGTLVTVSS chain 2: DIQMTQSPSSLSASVGDRVTITCKASQSVDYDGHSYMNWYQQKPGKAPKLLIYAASNLESGVPSRFSGSGSGTDFTLTISSLQPEDFATYYCQQSDENPLTFGGGTKVEIK | 0.9
3 | unnamed (protein) chain 1: EVQLVESGGGLVQPGGSLRLSCAASGYSFTGYYIHWVRQAPGKGLEWVARVIPNAGGTSYNQKFKGRFTLSVDNSKNTAYLQMNSLRAEDTAVYYCAREGIYWWGQGTLVTVSS chain 2: DIQMTQSPSSLSASVGDRVTITCRSSQSLVHSNGNTFLHWYQQKPGKAPKLLIYTVSNRFSGVPSRFSGSGSGTDFTLTISSLQPEDFATYFCSQTTHVPWTFGQGTKVEIK | 0
4 | unnamed (protein) chain 1: QVQLQESGPGLVKPSQTLSLTCTVSGGSISSGDYFWSWIRQLPGKGLEWIGHIHNSGTTYYNPSLKSRVTISVDTSKKQFSLRLSSVTAADTAVYYCARDRGGDYYYGMDVWGQGTTVTVSS chain 2: EIVLTQSPGTLSLSPGERATLSCRASQGISRSYLAWYQQKPGQAPSLLIYGASSRATGIPDRFSGSGSGTDFTLTISRLEPEDFAVYYCQQFGSSPWTFGQGTKVEIK | 0
5 | unnamed (protein) chain 1: QVQLQQSGAEVKKPGASVKVSCEASGYTFPSYVLHWVKQAPGQGLEWIGYINPYNDGTQYNEKFKGKATLTRDTSINTAYMELSRLRSDDTAVYYCARGFGGSYGFAYWGQGTLVTVSS chain 2: DIQLTQSPSSLSASVGDRVTMTCSASSSVSSSYLYWYQQKPGKAPKLWIYSTSNLASGVPARFSGSGSGTDFTLTISSLQPEDSASYFCHQWNRYPYTFGGGTRLEIK | 10
6 | unnamed (protein) chain 1: EVQLVESGGGLVEPGGSLRLSCAVSGFDFEKAWMSWVRQAPGQGLQWVARIKSTADGGTTSYAAPVEGRFIISRDDSRNMLYLQMNSLKTEDTAVYYCTSAHWGQGTLVTVSS chain 2: SYELTQPPSVSVSPGQTARITCSGEALPMQFAHWYQQRPGKAPVIVVYKDSERPSGVPERFSGSSSGTTATLTITGVQAEDEADYYCQSPDSTNTYEVFGGGTKLTVL | 0
7 | unnamed (protein) chain 1: QVQLVQSGAEVKKPGASVKVSCKVSGYTLSDLSIHWVRQAPGKGLEWMGGFDPQDGETIYAQKFQGRVTMTEDTSTDTAYMELSSLKSEDTAVYYCATGSSSSWFDPWGQGTLVTVSS chain 2: DIQMTQSPSSVSASVGDRVTITCRASQGISSWLAWYQQKPGKAPKLLIYGASNLESGVPSRFSGSGSGTDFTLTISSLQPEDFANYYCQQANSFPWTFGQGTKVEIK | 0.4
8 | unnamed (protein) chain 1: QVQLVESGGGVVQPGRSLRLSCAASGFSFSNYGMHWVRQAPGKGLEWVALIWYDGSNEDYTDSVKGRFTISRDNSKNTLYLQMNSLRAEDTAVYYCARWGMVRGVIDVFDIWGQGTVVTVSS chain 2: DIQMTQSPSSVSASVGDRVTITCRASQGISSWLAWYQHKPGKAPKLLIYAASSLQSGVPSRFSGSGSGTDFTLTISSLQPEDFATYYCQQANSFPWTFGQGTKVEIK | 0
9 | unnamed (protein) chain 1: EVQLLESGGVLVQPGGSLRLSCAASGFTFSNFGMTWVRQAPGKGLEWVSGISGGGRDTYFADSVKGRFTISRDNSKNTLYLQMNSLKGEDTAVYYCVKWGNIYFDYWGQGTLVTVSS chain 2: DIQMTQSPSSLSASVGDSITITCRASLSINTFLNWYQQKPGKAPNLLIYAASSLHGGVPSRFSGSGSGTDFTLTIRTLQPEDFATYYCQQSSNTPFTFGPGTVVDFR | 1.3
10 | unnamed (protein) chain 1: QVQLVQSGAEVKKPGASVKVSCKASGYTFTRYGISWVRQAPGQGLEWMGWISTYSGNTNYAQKLQGRVTMTTDTSTSTAYMELRSLRSDDTAVYYCARRQLYFDYWGQGTLVTVSS chain 2: EIVMTQSPATLSVSPGERATLSCRASQSVSSNLAWFQQKPGQAPRPLIYDASTRATGVPARFSGSGSGTDFTLTISSLQSEDFAVYYCQQYDNWPLTFGGGTKVEIK | 3
11 | unnamed (protein) chain 1: EVQLVESGGGLVQPGGSLRLSCAASGFSLSNYYVTWVRQAPGKGLEWVGIIYGSDETAYATSAIGRFTISRDNSKNTLYLQMNSLRAEDTAVYYCARDDSSDWDAKFNLWGQGTLVTVSS chain 2: AIQMTQSPSSLSASVGDRVTITCQASQSINNELSWYQQKPGKAPKLLIYRASTLASGVPSRFSGSGSGTDFTLTISSLQPDDFATYYCQQGYSLRNIDNAFGGGTKVEIK | 1.8
12 | unnamed (protein) chain 1: QVQLVQSGAEVKKPGASVKVSCKASGYTFTNHYMHWVRQAPGQGLEWMGIINPISGSTSNAQKFQGRVTMTRDTSTSTVYMELSSLRSEDTAVYYCARDIVDAFDFWGQGTMVTVSS chain 2: AIQLTQSPSSLSASVGDRVTITCRASQGISSALVWYQQKPGKAPKLLIYDASSLESGVPSRFSGSGSGTDFTLTISSLQPEDFATYYCQQFNDYFTFGPGTKVDIK | 5
13 | unnamed (protein) chain 1: QVQLVQPGAEVVKPGASVKLSCKTSGYTFTSNWMHWVKQAPGQGLEWIGEIDPSDSYTNYNQNFQGKAKLTVDKSTSTAYMEVSSLRSDDTAVYYCARGSNPYYYAMDYWGQGTSVTVSS chain 2: EIVLTQSPAIMSASPGERVTMTCSASSGVNYMHWYQQKPGTSPRRWIYDTSKLASGVPARFSGSGSGTDYSLTISSMEPEDAATYYCHQRGSYTFGGGTKLEIK | 33
14 | unnamed (protein) chain 1: QVQLVESGGGVVQPGRSLRLSCAASGFTFSVYGMNWVRQAPGKGLEWVAIIWYDGDNQYYADSVKGRFTISRDNSKNTLYLQMNGLRAEDTAVYYCARDLRTGPFDYWGQGTLVTVSS chain 2: EIVLTQSPDFQSVTPKEKVTITCRASQSIGSSLHWYQQKPDQSPKLLIKYASQSFSGVPSRFSGSGSGTDFTLTINSLEAEDAAAYYCHQSSSLPFTFGPGTKVDIK | 0
15 | unnamed (protein) chain 1: EVQLVESGGGLVQPGGSLRLSCAASGYVFTDYGMNWVRQAPGKGLEWMGWINTYIGEPIYADSVKGRFTFSLDTSKSTAYLQMNSLRAEDTAVYYCARGYRSYAMDYWGQGTLVTVSS chain 2: DIQMTQSPSSLSASVGDRVTITCKASQNVGTNVAWYQQKPGKAPKALIYSASFLYSGVPYRFSGSGSGTDFTLTISSLQPEDFATYYCQQYNIYPLTFGQGTKVEIK | 8
16 | unnamed (protein) chain 1: QVQLVQSGAEVKKPGSSVKVSCKASGYTFTSYRMHWVRQAPGQGLEWIGYINPSTGYTEYNQKFKDKATITADESTNTAYMELSSLRSEDTAVYYCARGGGVFDYWGQGTLVTVSS chain 2: DIQMTQSPSTLSASVGDRVTITCSASSSISYMHWYQQKPGKAPKLLIYTTSNLASGVPARFSGSGSGTEFTLTISSLQPDDFATYYCHQRSTYPLTFGQGTKVEVK | 19
17 | unnamed (protein) chain 1: EVQLVESGGGLVKPGGSLRLSCAASGFTFSNYAMSWVRQTPEKRLEWVATISRSGSYSYFPDSVQGRFTISRDNAKNSLYLQMNSLRAEDTAVYYCARLGGYDEGDAMDSWGQGTTVTVSS chain 2: DIVMTQTPLSLSVTPGQPASISCKSSQSLLESDGKTYLNWYLQKPGQSPQLLIYLVSILDSGVPDRFSGSGSGTDFTLKISRVEAEDVGVYYCLQATHFPQTFGGGTKVEIK | 17
18 | unnamed (protein) chain 1: EVQLVESGGGLVQPGGSLRLSCAASGFTFSSYGMSWVRQAPGKGLELVASINSNGGSTYYPDSVKGRFTISRDNAKNSLYLQMNSLRAEDTAVYYCASGDYWGQGTTVTVSS chain 2: DIVMTQSPLSLPVTPGEPASISCRSSQSLVYSNGDTYLHWYLQKPGQSPQLLIYKVSNRFSGVPDRFSGSGSGTDFTLKISRVEAEDVGVYYCSQSTHVPWTFGQGTKVEIK | 0
19 | unnamed (protein) chain 1: QVQLQESGPGLVKPSETLSLTCTVSGYSITGGYLWNWIRQPPGKGLEWIGYISYDGTNNYKPSLKDRVTISRDTSKNQFSLKLSSVTAADTAVYYCARYGRVFFDYWGQGTLVTVSS chain 2: DIVMTQSPLSLPVTPGEPASISCRSSQSIVHSNGNTYLQWYLQKPGQSPQLLIYKVSNRLYGVPDRFSGSGSGTDFTLKISRVEAEDVGVYYCFQGSHVPWTFGQGTKVEIK | 0
